For test [1], the target named is soluble human CD3 epsilon-delta heterodimer (Homo sapiens (Human).) (UniProt P07766). The experiment in a line: SPR; Biacore 3000 and T-200; P-cadherin or human CD3 protein immobilised on CM5 by amine coupling (~75–300 RU); DART injected in two-fold series 100 to 6.25 nM; TBS-P+ (10 mM Tris pH 7.4, 150 mM NaCl, 2 mM CaCl2, 0.1 mg/mL BSA, 0.05% P20); global 1:1 Langmuir fit.

For test [2], the target named is cynomolgus monkey P-cadherin extracellular domain (ECD) (Macaca fascicularis). Described as above.
In test [3] the target is human P-cadherin-Fc (recombinant human P-cadherin ECD protein) (Homo sapiens (Human).) (UniProt P22223). Described as above.
Test [4] deals with soluble human CD3 epsilon-delta heterodimer (Homo sapiens (Human).) (UniProt P07766). Nature of the test: ELISA; cadherin-Fc, P-cadherin His or CD3 epsilon-delta protein coated at 1 or 2 µg/mL; sample in 3% milk/PBS + Ca2+ and Mg2+, 1 h at room temperature.
The target in test [5] is human P-cadherin-Fc (recombinant human P-cadherin ECD protein) (Homo sapiens (Human).) (UniProt P22223). Described as above.
Test [6] has as its target human P-cadherin, cell surface-expressed on NCI-H1650 adenocarcinoma cells (Homo sapiens (Human).) (UniProt P22223). Nature of the test: ELISA; cell binding ELISA on a confluent monolayer of NCI-H1650 cells; DART in 3% milk/PBS + Ca2+ and Mg2+, 1 h at room temperature; HRP-labelled secondary antibody.
Test [7] addresses cynomolgus monkey P-cadherin extracellular domain (ECD) (Macaca fascicularis). The experiment in a line: KinExA; recombinant cynomolgus monkey P-cadherin; PBS pH 7.4 with MgCl2, CaCl2 and 1 mg/mL BSA; PMMA beads; 4 °C for 2 h.
Test [8] has as its target human P-cadherin, cell surface-expressed on NCI-H1650 adenocarcinoma cells (Homo sapiens (Human).) (UniProt P22223).
The target of test [9] is human P-cadherin expressed on the surface of CHO cells (Homo sapiens) (UniProt P22223). The experiment in a line: KinExA; human P-cadherin expressed on the surface of CHO cells; PBS pH 7.4 with MgCl2, CaCl2 and 1 mg/mL BSA; 4 °C for 2 h.

Chain of UniProt P07766 (P07766 23-126, stated change not applied, chain 1 of 2): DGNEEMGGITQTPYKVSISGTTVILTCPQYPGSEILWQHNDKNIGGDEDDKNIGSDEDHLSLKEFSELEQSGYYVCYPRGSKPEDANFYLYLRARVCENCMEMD
Chain of UniProt P07766 (P04234 22-105, stated change not applied, chain 2 of 2, further chain): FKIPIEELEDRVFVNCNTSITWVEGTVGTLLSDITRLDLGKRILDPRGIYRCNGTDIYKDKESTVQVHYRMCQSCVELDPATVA

Regarding “PF-06671008 (anti-P-cadherin LP-DART #153) (bispecific antibody)”, the equilibrium dissociation constant (Kd) was 11.5 nM in test [1]; 0.521 nM in test [2]; more than 1 nM in test [3]; 0.352 nM in test [7]; 0.176 nM in [9]. For the same substance, in test [2], the koff was found to be 0.000205 s⁻¹. In [2], this substance displayed an on-rate (kon) of 437000 M⁻¹ s⁻¹. Also, the half-maximal effective concentration (EC50) worked out at 4.37 nM in test [4], 0.92 nM in test [5] and 0.593 nM in [6]. Also, in test [8], the redirected killing of DU145 cells by human PBMCs (LDH release, 24 h, E:T 30:1), EC50 came out at 0.0031 nM. In test [8], this substance returned a redirected killing of HCT-116 cells by human PBMCs (LDH release, 24 h, E:T 30:1), EC50 of 0.123 nM.

Source of the values: paper PMC6698862.
